In patent US20150376264A1 (CALIFORNIA INSTITUTE FOR BIOMEDICAL RESEARCH, published 2015):

Target: Leptin receptor
Test: cell-based or functional assay

B1: BLV1H12 hLeptin fusion protein (antibody, human IgG1)
heavy: not shown
light: QAVLNQPSSVSGSLGQRVSITCSGSSSNVGNGYVSWYQLIPGSAPRTLIYGDTSRASGVPDRFSGSRSGNTATLTISSLQAEDEADYFCASAEDSSSNAVFGSGTTLTVLGQPKSPPSVTLFPPSTEELNGNKATLVCLISDFYPGSVTVVWKADGSTITRNVETTRASKQSNSKYAASSYLSLTSSDWKSKGSYSCEVTHEGSTVTKTVKPSECS
EC50 (Baf3-LepR cell proliferation, AlamarBlue): 0.0575 nM
